Assays:
Details in all cases: remark: other sources report otherwise
[1] = biological target: SARS-CoV-2 RBD (B.1.1.7) domain (SARS-CoV-2); experiment: ELISA; parameters: unit not given beside the values
[2] = biological target: T1, SARS-CoV-2 Spike ectodomain (tri-S), Wuhan (SARS-CoV-2), P0DTC2; experiment: ELISA; parameters: unit not given beside the values
[3] = biological target: SARS-CoV-2 RBD (P.1) domain (SARS-CoV-2); experiment: ELISA; parameters: unit not given beside the values
[4] = biological target: SARS-CoV-2 RBD (B.1.351) domain (SARS-CoV-2); experiment: ELISA; parameters: unit not given beside the values
[5] = biological target: T1, SARS-CoV-2 Spike ectodomain (tri-S), …; experiment: biotinylated tri-S on immobilised ACE2, competition ELISA
[6] = biological target: T1, SARS-CoV-2 Spike ectodomain (tri-S), …; experiment: competition ELISA, spike protein binding to ACE2 ectodomain
[7] = biological target: T1, SARS-CoV-2 Spike ectodomain (tri-S), …; experiment: competition ELISA vs bio-Cv2.3194
[8] = biological target: SARS-CoV-2 RBD (B.1.1.7) domain (SARS-CoV-2); experiment: RBD-ACE2 competition ELISA; parameters: unit not given beside the values
[9] = biological target: SARS-CoV-2 RBD (P.1) domain (SARS-CoV-2); experiment: RBD-ACE2 competition ELISA; parameters: unit not given beside the values
[10] = biological target: SARS-CoV-2 RBD (B.1.351) domain (SARS-CoV-2); experiment: RBD-ACE2 competition ELISA; parameters: unit not given beside the values
[11] = biological target: T1, SARS-CoV-2 Spike ectodomain (tri-S), …; experiment: tri-S/ACE2 blocking ELISA [B]
[12] = biological target: T1, SARS-CoV-2 Spike ectodomain (tri-S), …; experiment: ELISA, coated antigen
[13] = biological target: T1, SARS-CoV-2 Spike ectodomain (tri-S), …; experiment: SPR (Biacore), antibody coupled to CM5 chip, viral protein as analyte
[14] = biological target: SARS-CoV-2 RBD (B.1.1.7) domain (SARS-CoV-2); experiment: ELISA; parameters: unit not given beside the values; remark: listed apart in the source
[15] = biological target: SARS-CoV-2 RBD (P.1) domain (SARS-CoV-2); experiment: ELISA; parameters: unit not given beside the values; remark: listed apart in the source
[16] = biological target: SARS-CoV-2 RBD (B.1.351) domain (SARS-CoV-2); experiment: ELISA; parameters: unit not given beside the values; remark: listed apart in the source
[17] = biological target: T1, SARS-CoV-2 Spike ectodomain (tri-S), …; experiment: tri-S capture ELISA
[18] = biological target: SARS-CoV-2 RBD (B.1.1.7) domain (SARS-CoV-2); experiment: competition ELISA, biotinylated RBD to immobilized ACE2 ectodomain
[19] = biological target: SARS-CoV-2 RBD (P.1) domain (SARS-CoV-2); experiment: as above
[20] = biological target: SARS-CoV-2 RBD (B.1.351) domain (SARS-CoV-2); experiment: as above
[21] = biological target: T1, SARS-CoV-2 Spike ectodomain (tri-S), …; experiment: competition ELISA vs bio-Cv2.1353
[22] = biological target: T1, SARS-CoV-2 Spike ectodomain (tri-S), …; experiment: SPR (Biacore), IgG immobilized, viral protein as analyte
[23] = biological target: T1, SARS-CoV-2 Spike ectodomain (tri-S), …; experiment: competition ELISA vs bio-Cv2.3235
[24] = biological target: T1, SARS-CoV-2 Spike ectodomain (tri-S), …; experiment: competition ELISA vs bio-Cv2.5213
[25] = biological target: T1, SARS-CoV-2 Spike ectodomain (tri-S), …; experiment: competition ELISA, biotinylated tri-S to immobilized ACE2 ectodomain
[26] = biological target: SARS-CoV-2 RBD (B.1.1.7) domain (SARS-CoV-2); experiment: ELISA
[27] = biological target: T1, SARS-CoV-2 Spike ectodomain (tri-S), …; experiment: ELISA
[28] = biological target: SARS-CoV-2 RBD (P.1) domain (SARS-CoV-2); experiment: ELISA
[29] = biological target: SARS-CoV-2 RBD (B.1.351) domain (SARS-CoV-2); experiment: ELISA

B1: Cv2.3194 (recombinant human IgG1) (antibody)
heavy: EVQLVESGGGLIQPGGSLRLSCAASGITVTSNYMSWVRQAPGKGLEWVSVIYPGGSTFYADSVKGRFTISRDNSKNTLYLQMNSLRAEDTAVYYCARDLVVYGMDVWGQGTTVTVSSASTKGPSVFPLAPSSKSTSGGTAALGCLVKDYFPEPVTVSWNSGALTSGVHTFPAVLQSSGLYSLSSVVTVPSSSLGTQTYICNVNHKPSNTKVDKKVEPKSCDKTHTCPPCPAPELLGGPSVFLFPPKPKDTLMISRTPEVTCVVVDVSHEDPEVKFNWYVDGVEVHNAKTKPREEQYNSTYRVVSVLTVLHQDWLNGKEYKCKVSNKALPAPIEKTISKAKQPREPQVYTLPPSRDELTKNQVSLTCLVKGFYPSDIAVEWESNGQPENNYKTTPPVLDSDGSFFLYSKLTVDKSRWQQGNVFSCSVMHEALHNHYTQKSLSLSPGK
light: EIVLTQSPGTLSLSPGERATLSCRASQSVSSSYLAWYQQKPGQAPRLLIYGASSRATGIPGRFSGSGSGTDFTLTISRLEPEDFAIYYCQQGVTFGGGTKVEIKRTVAAPSVFIFPPSDEQLKSGTASVVCLLNNFYPREAKVQWKVDNALQSGNSQESVTEQDSKDSTYSLSSTLTLSKADYEKHKVYACEVTHQGLSSPVTKSFNRGEC
B1 was tested, and the AUC [1] was 3, the AUC [2] was 3 and the AUC [3] was 3. For the same binder, the AUC [4] was 4, the EC50 [5] was 0.31 µg/mL and the ACE2 Block (%) [6] was 91%. The % inhibition (competition) [7] was 86, the AUC (RBD block.) [8] was 294 and the AUC (RBD block.) [9] was 279. For the same binder, the AUC (RBD block.) [10] was 335, the AUC of blocking [11] was 181 and the ELISA OD [12] was 3.6 OD. It also gave a triS ELISA (AUC) [12] of 15.8 AUC, a Kd [13] of less than 0.001 nM and an AUC (RBD bind.) [14] of 13. The AUC (RBD bind.) [15] was 13, the AUC [16] was 12 and the AUC (RBD bind.) [16] was 12. For the same binder, the triS Capt-ELISA [17] was 2.3, the IC50 [18] was 0.212 µg/mL and the IC90 [18] was 0.737 µg/mL. The IC50 [19] was 0.412 µg/mL, the IC90 [19] was 0.591 µg/mL and the IC50 [20] was 0.206 µg/mL. The IC90 [20] was 0.406 µg/mL, the % inhibition (competition) [21] was 82 and the Kd [22] was 0.459 nM. It also gave a koff [22] of 0.00112 s⁻¹, a kon [22] of 2.45e+06 M⁻¹ s⁻¹ and a % inhibition (competition) [23] of 97. For the same binder, the % inhibition (competition) [24] was 84, the IC50 [25] was 0.093 µg/mL and the IC90 [25] was 0.212 µg/mL. It also gave an OD405nm [26] of 3.4, an OD405nm [27] of 3.5 and an OD405nm [28] of 3.4. For the same binder, the OD405nm [29] was 3.5.
